Laboratory results from the supplement of paper PMC10724198.
± gives the standard deviation of the averaged measurements.

system: Saccharomyces cerevisiae; assay: protein stability index of tFT-peptide fusion (C-terminal peptide) (PSI (0-1 scale)); higher = more stable (slower turnover); settings: genetic background: wild type; temperature: 30 C
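Also: PSI is a weighted mean of sequencing reads over stability bins, variants kept only with over 10 reads, mCherry proximal and sfGFP distal, peptide attached via GGGS linker.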

Sequence	protein stability index
EGGTGNHSVSNQ	0.654 ± 0.022
FFSRSPVFSFDF	0.8218 ± 0.0017
HCVRVEWVEGRR	0.668 ± 0.023
ESIQGRHRMSCL	0.6912 ± 0.006
KIDKLRKRQRKK	0.664 ± 0.017
SLCTFSFLRFGF	0.738 ± 0.015
PIPPPPRACGPS	0.7 ± 0.02
GGGVSFWLGGVA	0.633 ± 0.045
ELLHMAAGLGGR	0.643 ± 0.015
PPARLPLPPPSP	0.753 ± 0.061
SSFGSALRPRGV	0.677 ± 0.029
EVWGGFGGGGGS	0.72 ± 0.027
PGGQGVRTDRPQ	0.678 ± 0.025
CGTPDLGLLRAT	0.74 ± 0.054
LPPSRSPPPFPL	0.728 ± 0.048
FPPLIPLPINHP	0.631 ± 0.1
LAGLLMSPNMSP	0.697 ± 0.025
SARLCPPRGGFR	0.748 ± 0.018
GTGTNGPSSAKL	0.7399 ± 0.0056
ISEGKTIIYCLW	0.523 ± 0.081
RKMTSIINKKTV	0.513 ± 0.0083
LLNCVCSYFAWC	0.637 ± 0.014
VLLRRRSIWPLG	0.72 ± 0.0063
RLHSLLFYALGS	0.668 ± 0.028
YVWVPCIRSVLV	0.491 ± 0.018

Sequence	protein stability index
RIVASTLKSYLT	0.68835 ± 0.00068
GGVLSAGSWSGG	0.665 ± 0.019
RASRSPIARPGT	0.643 ± 0.018
PVLPLPSLPSPS	0.675 ± 0.0093
APHPTPYVRRHC	0.74 ± 0.041
PSQTTRSPPPPP	0.708 ± 0.015
GARGLVGHWRRG	0.615 ± 0.035
SHSTPAFPLPPP	0.638 ± 0.068
EGTSYWDPSVPG	0.741 ± 0.045
PPHHLPPGPPHP	0.72 ± 0.078
PLLPSPPLLLPS	0.819 ± 0.12
KRNKKCKKIKKK	0.677 ± 0.11
TKSRKWEERENQ	0.682 ± 0.013
LRAWAAPPPHGL	0.727 ± 0.076
PPPWPSLCLPPS	0.706 ± 0.048
SPFRATPYPLLP	0.6909 ± 0.0031
PFPSFFFCCISL	0.507 ± 0.0075
PPPHPLPRPLPT	0.853 ± 0.051
PRAYPSNLPPSP	0.721 ± 0.037
NPYLLCKFSTLL	0.675 ± 0.028
NPRGAKRRNSRK	0.663 ± 0.058
YACADVSDPLSV	0.721 ± 0.019
CRSGSGGGIRGR	0.741 ± 0.011
EKRINLKKRGKT	0.669 ± 0.064
PLPTPTPPPPAP	0.734 ± 0.028

Sequence	protein stability index
VLCRSLAGCCFV	0.709 ± 0.012
GKNKKSKTLIKQ	0.669 ± 0.029
YERPIVAAVRSR	0.724 ± 0.02
PPPLHPTTLPQP	0.733 ± 0.017
GESGGVGGQCWR	0.74 ± 0.0082
LAGGGWGGACGE	0.655 ± 0.017
RVTRPSARLLSP	0.639 ± 0.084
DGAVCSAFASIF	0.701 ± 0.0089
EGSSGVLESRAG	0.671 ± 0.026
RLLDLRLYVGKG	0.618 ± 0.012
CGRFCLQGEYIV	0.705 ± 0.12
MAVVSDDRDINC	0.681 ± 0.056
SVRHPPWDHRPP	0.571 ± 0.083
AGRGRGPRSAGS	0.657 ± 0.014
CRASGGVSCGAS	0.639 ± 0.046
AGPGSSSTNHES	0.585 ± 0.015
CGSDRINACVRI	0.727 ± 0.032
PHCPPPPSLSPP	0.791 ± 0.094
IGRLQGWSSGDE	0.688 ± 0.037
RTPPLPLLPPHP	0.788 ± 0.052
KKKKKKRNKQKN	0.752 ± 0.043
DVAWHNYRISGK	0.673 ± 0.015
WRAGSGGGPLAS	0.68 ± 0.043
PIRPSPPVLPPL	0.647 ± 0.11
FGRSGDGVGGLA	0.667 ± 0.026

Sequence	protein stability index
KKNYEKPIRKYQ	0.642 ± 0.02
ARIECLIFPGCK	0.626 ± 0.022
SLSCDITRFVEY	0.712 ± 0.19
ILTAVFAVPILP	0.57 ± 0.04
NLEVNFKNIYVK	0.679 ± 0.038
GPVHVRGVGFGF	0.73 ± 0.02
MPSRTYPSPPLG	0.693 ± 0.03
SPGLYGPLSRGM	0.684 ± 0.063
PSPPPSPPSPPS	0.708 ± 0.02
CPCAWFSFLCFS	0.666 ± 0.0066
KGWGDGPGSYVN	0.68 ± 0.035
WGGAGRVWVLGP	0.696 ± 0.019
GGARVAVCEGGE	0.771 ± 0.026
AGVGLAETAGDD	0.677 ± 0.016
PPPAPDRATIRR	0.673 ± 0.068
SPPPPPAPHPCP	0.686 ± 0.03
GRSMWFIEFGLG	0.7578 ± 0.0057
QGGRGGRHVTDI	0.688 ± 0.022
ALYQNWITITRN	0.657 ± 0.022
RKKTKKEKSEEI	0.694 ± 0.031
GIPEFGYLYLVT	0.613 ± 0.017
PRPKNQMAIYRE	0.708 ± 0.07
FVLLSPRYSPPR	0.676 ± 0.027
LGFISGCGVFGT	0.708 ± 0.026
GFVRGDRSGVGG	0.702 ± 0.036

Sequence	protein stability index
FCVVGKGWKGEG	0.626 ± 0.0098
WLLSVYSVGTDV	0.589 ± 0.2
GDVRLWMRGIER	0.803 ± 0.077
LPPPPRPALSHR	0.72 ± 0.089
EAAVTESVTGKR	0.679 ± 0.0088
GYYVLSIGGVIV	0.574 ± 0.0065
STTLKIHRKNRK	0.725 ± 0.063
ILFLGSLGCPGG	0.697 ± 0.019
RRVELCWAAGVR	0.641 ± 0.025
ISEGSSRFRTSL	0.6542 ± 0.0025
GWGGCGGWGFVG	0.605 ± 0.011
LGFPLPRTPSIT	0.792 ± 0.06
QKIREKKKRKKL	0.622 ± 0.015
APPRSPRSLPPL	0.658 ± 0.013
GCRRGGGFLECV	0.633 ± 0.034
CLSGVLDFLLFL	0.648 ± 0.0085
MKASRREDLCEP	0.62 ± 0.065
GRWRVLREVGAS	0.664 ± 0.01
SRARADTSRRRA	0.7061 ± 0.0059
GRRNVGLKNSGL	0.645 ± 0.028
DQVSGYNVWFGT	0.698 ± 0.028
PPPRLNPLPPAC	0.731 ± 0.066
FHTLCLGPCTVI	0.675 ± 0.035
IEEQQKEKNRPK	0.712 ± 0.027
DAACDSGLSAEW	0.722 ± 0.015

Sequence	protein stability index
DKYFRYKEERTY	0.766 ± 0.16
FGKWSWGECEGS	0.69 ± 0.032
RRRSSRPAPPPL	0.698 ± 0.023
RPSLPPSPPPPP	0.848 ± 0.22
PPLLPLPPRPLL	0.728 ± 0.044
LWGGPLLLPVCL	0.577 ± 0.013
SVHRRRSLLTPL	0.706 ± 0.05
LPYAMPGFHSTR	0.701 ± 0.037
YTAPIIGIGDDG	0.659 ± 0.036
GAAKDYLMALEG	0.705 ± 0.076
VVVFPYCPLPLV	0.597 ± 0.076
ESAGPSIYKLVT	0.638 ± 0.0092
PPPPPQSRASSP	0.738 ± 0.022
GGGGMVVGEVVG	0.685 ± 0.038
GSGTTGSLSYGV	0.695 ± 0.02
LYPPVYRPVLSL	0.6626 ± 0.0029
SRPSSFRLRFLH	0.393 ± 0.18
PPTHLLRTHPPA	0.68368 ± 0.00032
GGWSGRFVTVGR	0.713 ± 0.066
CRWRLGRLARCA	0.515 ± 0.0084
NLPERSRANTLS	0.6749 ± 0.0061
